Laboratory results published in the supplement of paper PMC10724198.
± gives the standard deviation of the averaged measurements.

Tested on: Saccharomyces cerevisiae
Assay: protein stability index of tFT-peptide fusion (C-terminal peptide) (PSI (0-1 scale)); higher = more stable (slower turnover)
Conditions: temperature: 30 C
Protocol: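 MPS profiling in S. cerevisiae of the yeast C-terminome library: the last 12 aa of each annotated ORF are fused to the C-terminus of a sfGFP-mCherry timer, after a GGGS linker. Cells are FACS-sorted into 8 mCherry/sfGFP bins and deep-sequenced. PSI runs from 0 (unstable) to 1 (stable); wild type and das1Δ backgrounds, two technical replicates each.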

[1] = genetic background: das1 deletion

Sequence | protein stability index [1] | protein stability index (genetic background: wild type)
LLLSIFSILIVL [YPS7 C-terminal 12 aa] | 0.321 ± 0.0053 | 0.2802 ± 0.0025
LLMVSVVNFVPL [YPL182C C-terminal 12 aa] | 0.474 ± 0.034 | 0.479 ± 0.0093
LLNDIKRRNMGR [MET28 C-terminal 12 aa] | 0.6834 ± 0.0045 | 0.723 ± 0.12
LLRNGDIDTITK [COG3 C-terminal 12 aa] | 0.7045 ± 0.0048 | 0.68 ± 0.016
LLYLYDNDHTST [GPI19 C-terminal 12 aa] | 0.72 ± 0.058 | 0.6907 ± 0.0034
LMAKRFQTGSLK [RTS3 C-terminal 12 aa] | 0.7028 ± 0.00076 | 0.716 ± 0.043
LMFSKLGRYLFN [NSG1 C-terminal 12 aa] | 0.6857 ± 0.0016 | 0.655 ± 0.021
LMLGVAYYLLNE [CYB5 C-terminal 12 aa] | 0.624 ± 0.044 | 0.649 ± 0.048
LMVENFRKEYII [PTI1 C-terminal 12 aa] | 0.7001 ± 0.002 | 0.547 ± 0.031
LMYIYQAFTTQD [GDT1 C-terminal 12 aa] | 0.684 ± 0.011 | 0.663 ± 0.036
LNAFQHPIVEFQ [YEL028W C-terminal 12 aa] | 0.755 ± 0.013 | 0.69 ± 0.022
LNDIGDPTKTVQ [YPL025C C-terminal 12 aa] | 0.689 ± 0.0087 | 0.705 ± 0.0072
LNEYSKDPPGNN [RAD18 C-terminal 12 aa] | 0.704 ± 0.018 | 0.707 ± 0.021
LNNFKFKTNSKQ [XBP1 C-terminal 12 aa] | 0.713 ± 0.027 | 0.679 ± 0.022
LNNTAASTGPGR [YKE2 C-terminal 12 aa] | 0.684 ± 0.011 | 0.655 ± 0.0052
LNRKEESDSFVA [CHS3 C-terminal 12 aa] | 0.6769 ± 0.0027 | 0.679 ± 0.017
LNTSNECCTSDD [BIL2 C-terminal 12 aa] | 0.692 ± 0.023 | 0.669 ± 0.016
LNTYVILFYTVY [YOL166W-A C-terminal 12 aa] | 0.273 ± 0.046 | 0.263 ± 0.0054
LPHFSHLHVHHD [YHR056W-A C-terminal 12 aa] | 0.7294 ± 0.0032 | 0.719 ± 0.032
LPPGLNSKKNIK [EAP1 C-terminal 12 aa] | 0.69532 ± 0.00062 | 0.658 ± 0.01
LPQRSIPCAIYP [YCR108C C-terminal 12 aa] | 0.687 ± 0.012 | 0.7045 ± 0.0036

Sequence | protein stability index [1] | protein stability index (genetic background: wild type)
LSAGFGIGEFML [YGR079W C-terminal 12 aa] | 0.72 ± 0.023 | 0.692 ± 0.036
LSAIVFLGTSSH [AVT5 C-terminal 12 aa] | 0.7155 ± 0.0055 | 0.704 ± 0.021
LSDKNPEFKYMY [TNA1 C-terminal 12 aa] | 0.686 ± 0.0071 | 0.706 ± 0.0095
LSEASKLASKPL [COX15 C-terminal 12 aa] | 0.701 ± 0.0094 | 0.704 ± 0.039
LSLRSLQIMGRN [DSS4 C-terminal 12 aa] | 0.6993 ± 0.00084 | 0.726 ± 0.024
LSSKKQTVMDKE [POL5 C-terminal 12 aa] | 0.6463 ± 0.0045 | 0.749 ± 0.051
LSTKNIDDGMIS [COG7 C-terminal 12 aa] | 0.706 ± 0.025 | 0.679 ± 0.052
LVEILDCEIRTL [MIC60 C-terminal 12 aa] | 0.6827 ± 0.0058 | 0.6707 ± 0.0035
LVFALLTCFEDG [YDR209C C-terminal 12 aa] | 0.481 ± 0.0089 | 0.505 ± 0.014
LVGGGIKKSGKK [TMA7 C-terminal 12 aa] | 0.67 ± 0.016 | 0.736 ± 0.011
LVHFLGLILNNF [YNL171C C-terminal 12 aa] | 0.68 ± 0.018 | 0.624 ± 0.014
LVHIKMENGIVS [IZH2 C-terminal 12 aa] | 0.65319 ± 0.00027 | 0.693 ± 0.019
LYGPSKTRKFFD [VMA4 C-terminal 12 aa] | 0.724 ± 0.027 | 0.692 ± 0.011
LYGQRFLATGFQ [AIM19 C-terminal 12 aa] | 0.714 ± 0.0097 | 0.705 ± 0.024
LYLLLARVFEIW [SNF11 C-terminal 12 aa] | 0.567 ± 0.059 | 0.5614 ± 0.0025
LYQCRMPCLYSI [YGL193C C-terminal 12 aa] | 0.659 ± 0.026 | 0.586 ± 0.014
LYWDPSWITRQL [SNF8 C-terminal 12 aa] | 0.716 ± 0.019 | 0.621 ± 0.043
MDPMSPLNKDVS [YMR196W C-terminal 12 aa] | 0.692 ± 0.0081 | 0.73 ± 0.05
MFTSDKKTEQTT [URC2 C-terminal 12 aa] | 0.708 ± 0.0052 | 0.695 ± 0.011
MGSSRRTSLDFF [YBR071W C-terminal 12 aa] | 0.7242 ± 0.0015 | 0.693 ± 0.025
